# Data published in the supplement of paper PMC5998384.
# What was measured:
# [1] = tested on: HeLa Kyoto; experiment: solubility in G1/S (NP-40 vs SDS abundance) (log2 ratio); higher = more soluble; conditions: cell cycle stage: G1/S
# [2] = tested on: HeLa Kyoto; experiment: melting temperature (median over replicates), in situ; higher = more thermally stable
# [3] = tested on: HeLa Kyoto; experiment: solubility change mitosis vs G1/S (difference of NP-40 vs SDS log2 ratios) (log2 ratio difference); higher = more soluble in mitosis
# [4] = tested on: HeLa Kyoto; experiment: thermal stability score vs G1/S (z-score of summed log2 fold changes over temperatures); higher = more thermally stable than in G1/S
# [5] = cell cycle stage: early G1 (4.5 h after nocodazole release)
# 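Throughout, for melting temperature (median over replicates), in situ: HeLa Kyoto cells synchronized by double thymidine or nocodazole block, proteins quantified by TMT10plex mass spectrometry, three independent biological replicates.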
# 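Throughout, for solubility change mitosis vs G1/S (difference of NP-40 vs SDS log2 ratios): synchronized HeLa Kyoto cells (double thymidine block for G1/S, nocodazole release for mitosis), protein amounts in NP-40 versus SDS lysates quantified by mass spectrometry, three biological replicates.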
# 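Throughout, for solubility in G1/S (NP-40 vs SDS abundance): HeLa Kyoto cells arrested at G1/S by double thymidine block, proteins quantified by TMT10plex mass spectrometry in mild NP-40 versus SDS extracts, three biological replicates.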
# 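Throughout, for thermal stability score vs G1/S (z-score of summed log2 fold changes over temperatures): synchronized HeLa Kyoto cells, proteins quantified by TMT10plex mass spectrometry, three biological replicates, mitosis taken 0.5 h after nocodazole release, G1/S directly after double thymidine block.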
Sequence,solubility in G1/S (log2) [1],melting temperature ([2]; cell cycle stage: G1/S) [°C],melting temperature ([2]; cell cycle stage: mitosis) [°C],solubility change mitosis (log2) [3],"thermal stability score [4, 5]",thermal stability score ([4]; cell cycle stage: mitosis)
MGALVIRGIRNFNLENRAEREISKMKPSVAPRHPSTNSLLREQISLYPEVKGEIARKDEKLLSFLKDVYVDSKDPVSSLQVKAAETCQEPKEFRLPKDHHFDMINIKSIPKGKISIVEALTLLNNHKLFPETWTAEKIMQEYQLEQKDVNSLLKYFVTFEVEIFPPEDKKAIRSK [NDUFAF4],0.314,50.4,54.2,-0.0449,-2.2,-2.98
MGAQLSTLGHMVLFPVWFLYSLLMKLFQRSTPAITLESPDIKYPLRLIDREIISHDTRRFRFALPSPQHILGLPVGQHIYLSARIDGNLVVRPYTPISSDDDKGFVDLVIKVYFKDTHPKFPAGGKMSQYLESMQIGDTIEFRGPSGLLVYQGKGKFAIRPDKKSNPIIRTVKSVGMIAGGTGITPMLQVIRAIMKDPDDHTVCHLLFANQTEKDILLRPELEELRNKHSARFKLWYTLDRAPEAWDYGQGFVNEEMIRDHLPPPEEEPLVLMCGPPPMIQYACLPNLDHVGHPTERCFVF [CYB5R3],-0.215,56,55.8,-0.158,-1.92,-2.76
MGASARLLRAVIMGAPGSGKGTVSSRITTHFELKHLSSGDLLRDNMLRGTEIGVLAKAFIDQGKLIPDDVMTRLALHELKNLTQYSWLLDGFPRTLPQAEALDRAYQIDTVINLNVPFEVIKQRLTARWIHPASGRVYNIEFNPPKTVGIDDLTGEPLIQREDDKPETVIKRLKAYEDQTKPVLEYYQKKGVLETFSGTETNKIWPYVYAFLQTKVPQRSQKASVTP [AK3],0.43,54.3,54.2,0.00633,-1.02,-2.48
MGAVWSALLVGGGLAGALFVWLLRGGPGDTGKDGDAEQEKDAPLGGAAIPGGHQSGSSGLSPGPSGQELVTKPEHLQESNGHLISKTKDLGKLQAASWRLQNPSREVCDNSREHVPSGQFPDTEAPATSETSNSRSYSEVSRNESLESPMGEWGFQKGQEISAKAATCFAEKLPSSNLLKNRAKEEMSLSDLNSQDRVDHEEWEMVPRHSSWGDVGVGGSLKAPVLNLNQGMDNGRSTLVEARGQQVHGKMERVAVMPAGSQQVSVRFQVHYVTSTDVQFIAVTGDHECLGRWNTYIPLHYNKDGFWSHSIFLPADTVVEWKFVLVENGGVTRWEECSNRFLETGHEDKVVHAWWGIH [STBD1],-0.336,50.7,50.3,-0.0441,0.314,-0.125
MGCCSSASSAAQSSKREWKPLEDRSCTDIPWLLLFILFCIGMGFICGFSIATGAAARLVSGYDSYGNICGQKNTKLEAIPNSGMDHTQRKYVFFLDPCNLDLINRKIKSVALCVAACPRQELKTLSDVQKFAEINGSALCSYNLKPSEYTTSPKSSVLCPKLPVPASAPIPFFHRCAPVNISCYAKFAEALITFVSDNSVLHRLISGVMTSKEIILGLCLLSLVLSMILMVIIRYISRVLVWILTILVILGSLGGTGVLWWLYAKQRRSPKETVTPEQLQIAEDNLRALLIYAISATVFTVILFLIMLVMRKRVALTIALFHVAGKVFIHLPLLVFQPFWTFFALVLFWVYWIMTLLFLGTTGSPVQNEQGFVEFKISGPLQYMWWYHVVGLIWISEFILACQQMTVAGAVVTYYFTRDKRNLPFTPILASVNRLIRYHLGTVAKGSFIITLVKIPRMILMYIHSQLKGKENACARCVLKSCICCLWCLEKCLNYLNQNAYTATAINSTNFCTSAKDAFVILVENALRVATINTVGDFMLFLGKVLIVCSTGLAGIMLLNYQQDYTVWVLPLIIVCLFAFLVAHCFLSIYEMVVDVLFLCFAIDTKYNDGSPGREFYMDKVLMEFVENSRKAMKEAGKGGVADSRELKPMASGASSA [SLC44A1],-0.0157,55.7,,-0.147,-1.35,-2.05
MGCTLSAEDKAAVERSKMIDRNLREDGEKAAKEVKLLLLGAGESGKSTIVKQMKIIHEDGYSEDECKQYKVVVYSNTIQSIIAIIRAMGRLKIDFGEAARADDARQLFVLAGSAEEGVMTPELAGVIKRLWRDGGVQACFSRSREYQLNDSASYYLNDLDRISQSNYIPTQQDVLRTRVKTTGIVETHFTFKDLYFKMFDVGGQRSERKKWIHCFEGVTAIIFCVALSDYDLVLAEDEEMNRMHESMKLFDSICNNKWFTETSIILFLNKKDLFEEKIKRSPLTICYPEYTGSNTYEEAAAYIQCQFEDLNRRKDTKEIYTHFTCATDTKNVQFVFDAVTDVIIKNNLKECGLY [GNAI3],-0.638,53.5,54.2,-0.175,0.761,0.823
MGDERPHYYGKHGTPQKYDPTFKGPIYNRGCTDIICCVFLLLAIVGYVAVGIIAWTHGDPRKVIYPTDSRGEFCGQKGTKNENKPYLFYFNIVKCASPLVLLEFQCPTPQICVEKCPDRYLTYLNARSSRDFEYYKQFCVPGFKNNKGVAEVLQDGDCPAVLIPSKPLARRCFPAIHAYKGVLMVGNETTYEDGHGSRKNITDLVEGAKKANGVLEARQLAMRIFEDYTVSWYWIIIGLVIAMAMSLLFIILLRFLAGIMVWVMIIMVILVLGYGIFHCYMEYSRLRGEAGSDVSLVDLGFQTDFRVYLHLRQTWLAFMIILSILEVIIILLLIFLRKRILIAIALIKEASRAVGYVMCSLLYPLVTFFLLCLCIAYWASTAVFLSTSNEAVYKIFDDSPCPFTAKTCNPETFPSSNESRQCPNARCQFAFYGGESGYHRALLGLQIFNAFMFFWLANFVLALGQVTLAGAFASYYWALRKPDDLPAFPLFSAFGRALRYHTGSLAFGALILAIVQIIRVILEYLDQRLKAAENKFAKCLMTCLKCCFWCLEKFIKFLNRNAYIMIAIYGTNFCTSARNAFFLLMRNIIRVAVLDKVTDFLFLLGKLLIVGSVGILAFFFFTHRIRIVQDTAPPLNYYWVPILTVIVGSYLIAHGFFSVYGMCVDTLFLCFLEDLERNDGSAERPYFMSSTLKKLLNKTNKKAAES [SLC44A2],0.0147,60.2,60.1,0.0871,-1.29,-2.25
MGDKIWLPFPVLLLAALPPVLLPGAAGFTPSLDSDFTFTLPAGQKECFYQPMPLKASLEIEYQVLDGAGLDIDFHLASPEGKTLVFEQRKSDGVHTVETEVGDYMFCFDNTFSTISEKVIFFELILDNMGEQAQEQEDWKKYITGTDILDMKLEDILESINSIKSRLSKSGHIQTLLRAFEARDRNIQESNFDRVNFWSMVNLVVMVVVSAIQVYMLKSLFEDKRKSRT [TMED5],0.107,54.2,55.5,-0.206,2.08,1.93
MGDPAPARSLDDIDLSALRDPAGIFELVEVVGNGTYGQVYKGRHVKTGQLAAIKVMDVTEDEEEEIKQEINMLKKYSHHRNIATYYGAFIKKSPPGNDDQLWLVMEFCGAGSVTDLVKNTKGNALKEDCIAYICREILRGLAHLHAHKVIHRDIKGQNVLLTENAEVKLVDFGVSAQLDRTVGRRNTFIGTPYWMAPEVIACDENPDATYDYRSDIWSLGITAIEMAEGAPPLCDMHPMRALFLIPRNPPPRLKSKKWSKKFIDFIDTCLIKTYLSRPPTEQLLKFPFIRDQPTERQVRIQLKDHIDRSRKKRGEKEETEYEYSGSEEEDDSHGEEGEPSSIMNVPGESTLRREFLRLQQENKSNSEALKQQQQLQQQQQRDPEAHIKHLLHQRQRRIEEQKEERRRVEEQQRREREQRKLQEKEQQRRLEDMQALRREEERRQAEREQEYKRKQLEEQRQSERLQRQLQQEHAYLKSLQQQQQQQQLQKQQQQQLLPGDRKPLYHYGRGMNPADKPAWAREVEERTRMNKQQNSPLAKSKPGSTGPEPPIPQASPGPPGPLSQTPPMQRPVEPQEGPHKSLVAHRVPLKPYAAPVPRSQSLQDQPTRNLAAFPASHDPDPAIPAPTATPSARGAVIRQNSDPTSEGPGPSPNPPAWVRPDNEAPPKVPQRTSSIATALNTSGAGGSRPAQAVRARPRSNSAWQIYLQRRAERGTPKPPGPPAQPPGPPNASSNPDLRRSDPGWERSDSVLPASHGHLPQAGSLERNRVGVSSKPDSSPVLSPGNKAKPDDHRSRPGRPADFVLLKERTLDEAPRPPKKAMDYSSSSEEVESSEDDEEEGEGGPAEGSRDTPGGRSDGDTDSVSTMVVHDVEEITGTQPPYGGGTMVVQRTPEEERNLLHADSNGYTNLPDVVQPSHSPTENSKGQSPPSKDGSGDYQSRGLVKAPGKSSFTMFVDLGIYQPGGSGDSIPITALVGGEGTRLDQLQYDVRKGSVVNVNPTNTRAHSETPEIRKYKKRFNSEILCAALWGVNLLVGTENGLMLLDRSGQGKVYGLIGRRRFQQMDVLEGLNLLITISGKRNKLRVYYLSWLRNKILHNDPEVEKKQGWTTVGDMEGCGHYRVVKYERIKFLVIALKSSVEVYAWAPKPYHKFMAFKSFADLPHRPLLVDLTVEEGQRLKVIYGSSAGFHAVDVDSGNSYDIYIPVHIQSQITPHAIIFLPNTDGMEMLLCYEDEGVYVNTYGRIIKDVVLQWGEMPTSVAYICSNQIMGWGEKAIEIRSVETGHLDGVFMHKRAQRLKFLCERNDKVFFASVRSGGSSQVYFMTLNRNCIMNW [MINK1],-0.0708,49.8,50.7,0.157,0.759,2.05
MGDSHVDTSSTVSEAVAEEVSLFSMTDMILFSLIVGLLTYWFLFRKKKEEVPEFTKIQTLTSSVRESSFVEKMKKTGRNIIVFYGSQTGTAEEFANRLSKDAHRYGMRGMSADPEEYDLADLSSLPEIDNALVVFCMATYGEGDPTDNAQDFYDWLQETDVDLSGVKFAVFGLGNKTYEHFNAMGKYVDKRLEQLGAQRIFELGLGDDDGNLEEDFITWREQFWPAVCEHFGVEATGEESSIRQYELVVHTDIDAAKVYMGEMGRLKSYENQKPPFDAKNPFLAAVTTNRKLNQGTERHLMHLELDISDSKIRYESGDHVAVYPANDSALVNQLGKILGADLDVVMSLNNLDEESNKKHPFPCPTSYRTALTYYLDITNPPRTNVLYELAQYASEPSEQELLRKMASSSGEGKELYLSWVVEARRHILAILQDCPSLRPPIDHLCELLPRLQARYYSIASSSKVHPNSVHICAVVVEYETKAGRINKGVATNWLRAKEPAGENGGRALVPMFVRKSQFRLPFKATTPVIMVGPGTGVAPFIGFIQERAWLRQQGKEVGETLLYYGCRRSDEDYLYREELAQFHRDGALTQLNVAFSREQSHKVYVQHLLKQDREHLWKLIEGGAHIYVCGDARNMARDVQNTFYDIVAELGAMEHAQAVDYIKKLMTKGRYSLDVWS [POR],0.0892,51.6,51.1,-0.125,4.17,5.83
MGEEDYYLELCERPVQFEKANPVNCVFFDEANKQVFAVRSGGATGVVVKGPDDRNPISFRMDDKGEVKCIKFSLENKILAVQRTSKTVDFCNFIPDNSQLEYTQECKTKNANILGFCWTSSTEIVFITDQGIEFYQVLPEKRSLKLLKSHNLNVNWYMYCPESAVILLSTTVLENVLQPFHFRAGTMSKLPKFEIELPAAPKSTKPSLSERDIAMATIYGQLYVLFLRHHSRTSNSTGAEVVLYHLPREGACKKMHILKLNRTGKFALNVVDNLVVVHHQDTETSVIFDIKLRGEFDGSVTFHHPVLPARSIQPYQIPITGPAAVTSQSPVPCKLYSSSWIVFQPDIIISASQGYLWNLQVKLEPIVNLLPDKGRLMDFLLQRKECKMVILSVCSQMLSESDRASLPVIATVFDKLNHEYKKYLDAEQSYAMAVEAGQSRSSPLLKRPVRTQAVLDQSDVYTHVLSAFVEKKEMPHKFVIAVLMEYIRSLNQFQIAVQHYLHELVIKTLVQHNLFYMLHQFLQYHVLSDSKPLACLLLSLESFYPPAHQLSLDMLKRLSTANDEIVEVLLSKHQVLAALRFIRGIGGHDNISARKFLDAAKQTEDNMLFYTIFRFFEQRNQRLRGSPNFTPGEHCEEHVAFFKQIFGDQALMRPTTF [C18ORF8],-0.0478,51.1,50.8,-0.121,0.23,0.326
